Consider 4 molecules from article PMC8809517, “Cofactor-independent RNA editing by a synthetic S-type PPR protein”.

Where a chain is given by its changes, count along the chain named.

What all share (test): high-throughput RNA pulldown from lysate on Ni-NTA beads; HRP: 50 mM Tris pH 8, 150 mM NaCl, 1 mM beta-mercaptoethanol, 50 ug/ml BSA, 3 ug/ml yeast RNA, 0.5% heparin; ITC and FP: Tris pH 8, 200 mM KCl, 5% glycerol; MST: 50 mM Tris pH 8, 200 mM NaCl, 1 mM DTT, BSA, heparin, 0.05% Tween 20
Conditions in all cases: tags: N-terminal His-eGFP

For series [1], the target named is T1, GFP-9S library array, motif 4 ND N98P;D124W (synthetic construct, N98P;D124W).
T1 chain: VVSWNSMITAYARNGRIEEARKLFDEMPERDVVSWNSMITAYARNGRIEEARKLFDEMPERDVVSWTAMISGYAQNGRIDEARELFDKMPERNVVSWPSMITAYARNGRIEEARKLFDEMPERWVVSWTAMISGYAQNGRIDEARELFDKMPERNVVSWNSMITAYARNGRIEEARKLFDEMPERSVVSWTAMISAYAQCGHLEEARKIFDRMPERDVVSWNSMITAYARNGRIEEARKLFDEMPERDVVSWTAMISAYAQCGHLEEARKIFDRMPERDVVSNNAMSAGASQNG

Series [2] deals with T2, GFP-9S library array, motif 4 ND N98V;D124A (synthetic construct, N98V;D124A).
T2 chain: T1 chain with P98V, W124A

Series [3] deals with T3, GFP-9S library array, motif 4 ND N98W;D124T (synthetic construct, N98W;D124T).
T3 chain: T1 chain with P98W, W124T

The target of series [4] is T4, GFP-9S library array, motif 4 ND N98T;D124M (synthetic construct, N98T;D124M).
T4 chain: T1 chain with P98T, W124M

The target of series [5] is T5, GFP-9S library array, motif 4 ND N98V;D124S (synthetic construct, N98V;D124S).
T5 chain: T1 chain with P98V, W124S

On to AUUAGACGUGA (ssRNA) [Cy5-rpoA-G], for which the Kd (in general, the equilibrium constant for the complex coming apart) in series [1] (label: 5' Cy5) came to 77.7 nM; in series [2] (label: 5' Cy5), 74.1 nM; in series [3] (label: 5' Cy5), 50.4 nM; in series [4] (label: 5' Cy5), 107 nM; in series [5] (label: 5' Cy5), 50.4 nM.

In the case of AUUAAACGUGA (ssRNA) [IR-rpoA-A], the Kd amounted to 44.6 nM in series [1] (label: 5' IRDye 800CW); 80.7 nM in series [2] (label: 5' IRDye 800CW); 76.1 nM in series [3] (label: 5' IRDye 800CW); 162 nM in series [4] (label: 5' IRDye 800CW); 26.8 nM in series [5] (label: 5' IRDye 800CW).

On to AUUACACGUGA (ssRNA) [Cy5-rpoA], for which the Kd was found to be 69.3 nM in series [1] (label: 5' Cy5); 64.4 nM in series [2] (label: 5' Cy5); 38.5 nM in series [3] (label: 5' Cy5); 101 nM in series [4] (label: 5' Cy5); 69.5 nM in series [5] (label: 5' Cy5).

Regarding AUUAUACGUGA (ssRNA) [IR-rpoA-U], the Kd in series [1] (label: 5' IRDye 800CW) is 81.9 nM; in series [2] (label: 5' IRDye 800CW), 71.8 nM; in series [3] (label: 5' IRDye 800CW), 59.1 nM; in series [4] (label: 5' IRDye 800CW) it was 165 nM; in series [5] (label: 5' IRDye 800CW) it was 50.3 nM.
